Reference: patent publication US20250026850A1 (TRISHULA THERAPEUTICS, published 2025)
Positions count from the first letter of the chain named. One block for each binder: values may come before it.

What was measured:
human CD39 on cells = target: T1, human CD39 on cells (human, UniProt P49961 1-510); test: flow cytometry, 100 nM IgG, hCD39-CHO cells; MFI ratio to parental CHO
T1 construct: One molecule for all cells that carry human CD39; the cell is named under assay; also called hCD39; cellular CD39
T1 sequence: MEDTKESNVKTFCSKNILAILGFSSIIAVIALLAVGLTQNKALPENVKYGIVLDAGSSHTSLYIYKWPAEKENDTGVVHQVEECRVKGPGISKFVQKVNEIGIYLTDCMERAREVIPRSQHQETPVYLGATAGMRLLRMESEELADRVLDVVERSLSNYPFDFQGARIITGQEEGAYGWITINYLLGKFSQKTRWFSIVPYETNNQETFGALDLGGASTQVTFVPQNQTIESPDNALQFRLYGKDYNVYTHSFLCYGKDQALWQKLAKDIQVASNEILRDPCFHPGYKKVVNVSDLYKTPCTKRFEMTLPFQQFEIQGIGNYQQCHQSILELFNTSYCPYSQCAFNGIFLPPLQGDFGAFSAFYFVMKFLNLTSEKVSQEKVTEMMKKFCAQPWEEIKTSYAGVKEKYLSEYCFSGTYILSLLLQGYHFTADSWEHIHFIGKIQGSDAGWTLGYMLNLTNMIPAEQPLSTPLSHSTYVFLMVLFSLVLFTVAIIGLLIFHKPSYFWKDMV
Protocol: (§1) 100 nanomolar IgGs (each antibody is indicated as a unique clone number in the FIG.) were incubated at […] 30 minutes on ice in phosphate buffered saline (PBS) with parental CHO cells or CHO cells engineered to express either human or cynomolgus macaque (Macaca fascicularis) CD39 (CHO CD39 cells). Cells were then washed with ice cold PBS and incubated with a fluorescently labeled goat-anti-human IgG for 20 minutes on ice. Cells were washed and resuspended in ice cold PBS prior to analysis by flow cytrometry.

[1] = target: T2, rhCD39-ECD-His (R&D Systems) (human, UniProt P49961 38-478); test: BLI (Octet), IgG on anti-human Fc sensor, rhCD39-ECD-His 10-300 nM, 1:1 fit
T2 construct: Bought protein; that entry runs on through the C-terminal transmembrane and cytoplasmic residues; also called recombinant human CD39 extracellular domain; soluble recombinant human CD39 (ENTDP1) ECD; not shown: His tag
T2 sequence: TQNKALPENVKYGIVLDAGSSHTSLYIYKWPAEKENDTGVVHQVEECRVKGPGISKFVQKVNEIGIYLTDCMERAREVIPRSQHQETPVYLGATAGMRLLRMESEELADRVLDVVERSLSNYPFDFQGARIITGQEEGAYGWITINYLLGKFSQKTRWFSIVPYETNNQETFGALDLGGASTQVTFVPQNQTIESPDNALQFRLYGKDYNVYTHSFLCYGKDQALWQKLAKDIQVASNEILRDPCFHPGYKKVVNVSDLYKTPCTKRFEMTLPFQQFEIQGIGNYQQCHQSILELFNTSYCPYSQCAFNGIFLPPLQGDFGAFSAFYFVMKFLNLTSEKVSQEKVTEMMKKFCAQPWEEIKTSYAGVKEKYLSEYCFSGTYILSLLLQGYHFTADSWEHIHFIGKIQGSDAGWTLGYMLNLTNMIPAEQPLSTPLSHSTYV
Protocol: The kinetic data was globally fit with a simple 1:1 Langmuir binding model to yield on-rate (kon) and off-rate (koff) values. The equilibrium dissociation constants (KD) were calculated from the kon and koff values.
Binding kinetics were measured using the Octet Red96 system (ForteBio) at 25° C. in running buffer (1× Pall ForteBio Kinetics Buffer diluted into PBS or Tris pH 7.4). […] After a short baseline step in running buffer, the sensors were exposed to varying concentrations (10-300 nM) of rhCD39-ECD-His (R&D Systems) for the association step. Dissociation of the complex was monitored upon exposure of the sensors to running buffer once again. Data was processed using ForteBio Octet software with baseline subtraction, global fit and 1:1 binding model to obtain association and dissociation rates. KD was calculated from the ratio of kd to kₐ.

[2] = target: T3, cynomolgus macaque (Macaca fascicularis) CD39 on cells (cynomolgus macaque (Macaca fascicularis), UniProt P49961 7-510 (human entry)); test: flow cytometry, 100 nM IgG, cCD39-CHO cells; MFI ratio to parental CHO
T3 construct: CHO cells engineered to express cyno CD39, or primary cyno B cells and monocytes; also called cyno CD39; cCD39
T3 chain: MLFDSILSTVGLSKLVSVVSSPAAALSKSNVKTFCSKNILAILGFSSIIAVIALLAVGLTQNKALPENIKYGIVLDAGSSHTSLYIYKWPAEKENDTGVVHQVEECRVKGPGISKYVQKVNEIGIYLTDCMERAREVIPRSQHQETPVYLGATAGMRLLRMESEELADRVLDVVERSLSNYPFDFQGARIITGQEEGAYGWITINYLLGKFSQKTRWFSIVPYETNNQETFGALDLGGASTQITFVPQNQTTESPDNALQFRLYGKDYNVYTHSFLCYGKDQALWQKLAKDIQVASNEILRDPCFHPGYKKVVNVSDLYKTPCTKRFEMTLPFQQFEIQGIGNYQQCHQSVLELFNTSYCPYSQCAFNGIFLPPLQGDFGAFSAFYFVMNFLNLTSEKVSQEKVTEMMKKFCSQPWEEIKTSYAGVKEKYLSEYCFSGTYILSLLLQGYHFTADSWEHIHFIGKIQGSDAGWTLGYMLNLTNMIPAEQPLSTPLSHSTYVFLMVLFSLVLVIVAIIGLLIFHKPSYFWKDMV
Protocol: as §1

B1: 27588 (antibody, V domains shown)
VH: QVQLVQSGAEVKKPGSSVKVSCKASGGTFSNYAISWVRQAPGQGLEWMGGIIPIFGTANYAQKFQGRVTITADESTSTAYMELSSLRSEDTAVYYCARAKRGYDSYGGVYFDYWGQGTLVTVSS
VL: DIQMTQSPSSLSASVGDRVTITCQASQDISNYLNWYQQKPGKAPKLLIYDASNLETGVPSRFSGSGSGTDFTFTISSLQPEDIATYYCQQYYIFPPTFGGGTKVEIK
Cell Binding (FOB) (human CD39 on cells): 10 FOB | Kd [1]: 54.9 nM | koff [1]: 0.00644 s⁻¹ | kon [1]: 117000 M⁻¹ s⁻¹ | Cell Binding (FOB) [2]: 14 FOB

B2: 27577 (antibody, V domains shown)
VH: QVQLVQSGAEVKKPGSSVKVSCKASGGAFSSYAIGWVRQAPGQGLEWMGGIIPTFGTANYAQKFQGRVTITADESTSTAYMELSSLRSEDTAVYYCARDGGGYQHHYFDLWGRGTLVTVSS
VL: EIVMTQSPATLSVSPGERATLSCRASQSVGSNLAWYQQKPGQAPRLLIYGASTRATGIPARFSGSGSGTEFTLTISSLQSEDFAVYYCQQLTKWPLTFGGGTKVEIKR
Cell Binding (FOB) (human CD39 on cells): 390 FOB | Kd [1]: 409 nM | koff [1]: 0.365 s⁻¹ | kon [1]: 893000 M⁻¹ s⁻¹ | Cell Binding (FOB) [2]: 339 FOB

B3: 27589 (antibody, V domains shown)
VH: QVQLVQSGAEVKKPGSSVKVSCKASGGTFSSYAISWVRQAPGQGLEWMGGIIPIFGTANYAQKFQGRVTITADESTSTAYMELSSLRSEDTAVYYCARDSGYHRHYSDYWGQGTLVTVSS
VL: DIQMTQSPSTLSASVGDRVTITCRASQSISSWLAWYQQKPGKAPKLLIYKASSLESGVPSRFSGSGSGTEFTLTISSLQPDDFATYYCQQYGLFPITFGGGTKVEIKR
Cell Binding (FOB) (human CD39 on cells): 311 FOB | Kd [1]: 191 nM | koff [1]: 0.0385 s⁻¹ | kon [1]: 202000 M⁻¹ s⁻¹ | Cell Binding (FOB) [2]: 531 FOB

B4: 27550 (antibody, V domains shown)
VH: EVQLVESGGGLVKPGGSLRLSCAASGFTFSSYSMNWVRQAPGKGLEWVSSISSSSSYIYYADSVKGRFTISRDNAKNSLYLQMNSLRAEDTAVYYCARERRGSLALGMDVWGQGTLVTVSS
VL: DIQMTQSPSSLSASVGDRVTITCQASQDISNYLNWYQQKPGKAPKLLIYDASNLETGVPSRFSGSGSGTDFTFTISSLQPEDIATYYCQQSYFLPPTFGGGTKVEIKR
Cell Binding (FOB) (human CD39 on cells): 2030 FOB | Kd [1]: 143 nM | koff [1]: 0.0633 s⁻¹ | kon [1]: 444000 M⁻¹ s⁻¹ | Cell Binding (FOB) [2]: 2870 FOB

B8: 27597 (antibody, V domains shown)
VH: QVQLVQSGAEVKKPGSSVKVSCKASGGTFSSYAISWVRQAPGQGLEWMGSIIPIFGTANYAQKFQGRVTITADESTSTAYMELSSLRSEDTAVYYCAREGRGYDSSRYYKFWFDPWGQGTLVTVSS
VL: EIVLTQSPATLSLSPGERATLSCRASQSVSSYLAWYQQKPGQAPRLLIYDASNRATGIPARFSGSGSGTDFTLTISSLEPEDFAVYYCQQFVLWPRTFGGGTKVEIKR
Cell Binding (FOB) (human CD39 on cells): 799 FOB | Kd [1]: 335 nM | koff [1]: 0.0914 s⁻¹ | kon [1]: 273000 M⁻¹ s⁻¹ | Cell Binding (FOB) [2]: 908 FOB

B9: 29871 (antibody, V domains shown)
VH: QVQLVQSGAEVKKPGASVKVSCKASGYTFQSYYMHWVRQAPGQGLEWMGKINPSGGSTWYAQKFQGRVTMTRDTSTSTVYMELSSLRSEDTAVYYCARGKREGGTEYLRHWGQGTLVTVSS
VL: EIVLTQSPGTLSLSPGERATLSCRASQSVSSSYLAWYQQKPGQAPRLLIYGASSRATGIPDRFSGSGSGTDFTLTISRLEPEDFAVYYCQQYHSYITFGGGTKVEIK
Cell Binding (FOB) (human CD39 on cells): 451 FOB | Kd [1]: 244 nM | koff [1]: 0.0666 s⁻¹ | kon [1]: 273000 M⁻¹ s⁻¹ | Cell Binding (FOB) [2]: 3350 FOB

B11: 27590 (antibody, V domains shown)
VH: QVQLVQSGAEVKKPGSSVKVSCKASGGTFSNYAISWVRQAPGQGLEWMGGIIPIFGTANYAQKFQGRVTITADESTSTAYMELSSLRSEDTAVYYCARGPTVTATTSIGTHNWFDPWGQGTLVTVSS
VL: EIVLTQSPATLSLSPGERATLSCRASQSVSSYLAWYQQKPGQAPRLLIYDASNRATGIPARFSGSGSGTDFTLTISSLEPEDFAVYYCQQRNFYPPTFGGGTKVEIK
Cell Binding (FOB) (human CD39 on cells): 33 FOB | Kd [1]: 131 nM | koff [1]: 0.023 s⁻¹ | kon [1]: 176000 M⁻¹ s⁻¹ | Cell Binding (FOB) [2]: 44 FOB

Binders with a lower Kd [1], results first:

Cell Binding (FOB) (human CD39 on cells): 1450 FOB | Kd [1]: 33.7 nM | koff [1]: 0.00711 s⁻¹ | kon [1]: 211000 M⁻¹ s⁻¹ | Cell Binding (FOB) [2]: 1400 FOB
B5: 27587 (antibody, V domains shown)
VH: QVQLVQSGAEVKKPGSSVKVSCKASGGTFSSYAISWVRQAPGQGLEWMGSIIPIFGTANYAQKFQGRVTITADESTSTAYMELSSLRSEDTAVYYCARESGGYRDHKLDVWGQGTMVTVSS
VL: B8 VL with N53K, F91D, R96L

Cell Binding (FOB) (human CD39 on cells): 1400 FOB | Kd [1]: 16.4 nM | koff [1]: 0.0105 s⁻¹ | kon [1]: 639000 M⁻¹ s⁻¹ | Cell Binding (FOB) [2]: 1610 FOB
B6: 27571 (antibody, V domains shown)
VH: B5 VH with V20A, Q65R, A79T, K107R
VL: EIVMTQSPATLSVSPGERATLSCRASQSVGSNLAWYQQKPGQAPRLLIYGASTRATGIPARFSGSGSGTEFTLTISSLQSEDFAVYYCQQYLIWPLTFGGGTKVEIK

Cell Binding (FOB) (human CD39 on cells): 252 FOB | Kd [1]: 31.1 nM | koff [1]: 0.0533 s⁻¹ | kon [1]: 1.72e+06 M⁻¹ s⁻¹ | Cell Binding (FOB) [2]: 257 FOB
B7: 27596 (antibody, V domains shown)
VH: B5 VH with S50G, E99D, S100P, G101L, Y103I, D105K, K107W, L108F, V110P, M116L
VL: B8 VL with L4M, F91H, V92T, L93V, R96I

Cell Binding (FOB) (human CD39 on cells): 1080 FOB | Kd [1]: 18.8 nM | koff [1]: 0.00526 s⁻¹ | kon [1]: 281000 M⁻¹ s⁻¹ | Cell Binding (FOB) [2]: 3050 FOB
B10: 31421 (antibody, V domains shown)
VH: B9 VH with Q30F, H35Y, K50V, S54L, S57G, W59S
VL: B9 VL with R24K, Q27E, G51Y, S94R, Y95R

Cell Binding (FOB) (human CD39 on cells): 1040 FOB | Kd [1]: 9.05 nM | koff [1]: 0.00815 s⁻¹ | kon [1]: 901000 M⁻¹ s⁻¹ | Cell Binding (FOB) [2]: 4540 FOB
B12: 31896 (antibody, V domains shown)
VH: QVQLVQSGAEVKKPGSSVKVSCKASGGTFSKLAISWVRQAPGQGLEWMGGIGFGTANYAQKFQGRVTITADESASTAYMELSSLRSEDTAVYYCARGGAKYASTHGMDVWGQGTTVTVSS
VL: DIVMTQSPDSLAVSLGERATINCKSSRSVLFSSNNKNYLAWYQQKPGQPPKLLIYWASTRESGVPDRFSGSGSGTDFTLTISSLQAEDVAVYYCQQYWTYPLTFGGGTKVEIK

Cell Binding (FOB) (human CD39 on cells): 1090 FOB | Kd [1]: 0.811 nM | koff [1]: 0.000286 s⁻¹ | kon [1]: 353000 M⁻¹ s⁻¹ | Cell Binding (FOB) [2]: 4580 FOB
B13: 31915 (antibody, V domains shown)
VH: B12 VH with K31S, A33P, A74T, T104K, H105W
VL: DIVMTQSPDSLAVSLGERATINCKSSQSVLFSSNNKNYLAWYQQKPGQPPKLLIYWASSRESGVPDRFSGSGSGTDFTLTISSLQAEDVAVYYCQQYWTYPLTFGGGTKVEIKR
